The values below come from PMC3882260, “Defining the Ligand Specificity of the Deleted in Colorectal Cancer (DCC) Receptor” (PLoS ONE, 2014).

This assay has as its target T1, extracellular domain of human DCC (M1-N1097) with a C-terminal Fc tag (human, UniProt P43146 26-1097).
T1 construct: signal peptide in the construct; Deleted in Colorectal Cancer (DCC), human, extracellular domain, amino acids 1-1097; On the array it was loaded on protein-A microbeads 1:1 with Cy5-labeled human IgG; in SPR it was amine-coupled to the chip; also called DCC-Fc; source: CHO cells, transient transfection, purified (protein A-Sepharose, gel filtration); not shown: Fc (human IgG), C-terminal, kept
The assay is described as follows: peptide or protein array; DCC-Fc mixed 1:1 with Cy5-labeled hIgG on multivalent protein-A microbeads, incubated with extracellular protein microarrays (Library 1: 1,334 samples; Library 2: 624 samples) on epoxysilane slides; washed with PBS-T; Cy5 fluorescence; two replicate screens. The settings on record: both partners purified.

T1 sequence (P43146 26-1097): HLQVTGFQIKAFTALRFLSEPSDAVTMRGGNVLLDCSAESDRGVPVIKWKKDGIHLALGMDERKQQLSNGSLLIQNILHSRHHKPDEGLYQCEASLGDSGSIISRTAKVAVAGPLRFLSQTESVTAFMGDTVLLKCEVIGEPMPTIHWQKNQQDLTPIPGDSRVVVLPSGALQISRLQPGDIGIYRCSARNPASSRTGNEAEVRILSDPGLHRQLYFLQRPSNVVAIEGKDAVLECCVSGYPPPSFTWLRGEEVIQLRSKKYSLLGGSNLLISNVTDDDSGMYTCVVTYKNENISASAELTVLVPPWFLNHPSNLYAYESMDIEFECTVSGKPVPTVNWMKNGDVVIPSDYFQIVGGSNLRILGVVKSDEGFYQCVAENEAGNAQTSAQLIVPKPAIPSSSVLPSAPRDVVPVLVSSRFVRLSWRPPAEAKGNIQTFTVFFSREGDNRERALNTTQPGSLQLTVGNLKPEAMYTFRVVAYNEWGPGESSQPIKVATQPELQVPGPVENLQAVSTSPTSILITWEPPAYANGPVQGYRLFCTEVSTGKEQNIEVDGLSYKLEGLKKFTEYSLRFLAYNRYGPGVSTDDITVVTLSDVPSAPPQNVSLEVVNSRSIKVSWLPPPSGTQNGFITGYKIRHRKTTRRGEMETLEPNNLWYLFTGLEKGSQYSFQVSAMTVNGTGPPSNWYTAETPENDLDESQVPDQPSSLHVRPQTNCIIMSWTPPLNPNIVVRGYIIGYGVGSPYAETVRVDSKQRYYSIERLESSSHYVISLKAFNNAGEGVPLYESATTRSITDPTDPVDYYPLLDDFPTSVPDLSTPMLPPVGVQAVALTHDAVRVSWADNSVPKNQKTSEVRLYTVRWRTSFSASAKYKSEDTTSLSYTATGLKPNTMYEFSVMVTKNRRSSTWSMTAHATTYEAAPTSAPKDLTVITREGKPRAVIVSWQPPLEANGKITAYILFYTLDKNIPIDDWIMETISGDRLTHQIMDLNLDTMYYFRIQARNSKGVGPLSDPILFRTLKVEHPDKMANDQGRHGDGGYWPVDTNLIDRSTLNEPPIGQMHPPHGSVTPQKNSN

B1: full length CBLN4 C-terminal His (ligand, human, UniProt Q9NTU7 28-201, looked up)
chain: QNDTEPIVLEGKCLVVCDSNPATDSKGSSSSPLGISVRAANSKVAFSAVRSTNHEPSEMSNKTRIIYFDQILVNVGNFFTLESVFVAPRKGIYSFSFHVIKVYQSQTIQVNLMLNGKPVISAFAGDKDVTREAATNGVLLYLDKEDKVYLKLEKGNLVGGWQYSTFSGFLVFPL
notes: Cerebellin 4 (CBLN4), full length; also called CBLN4-His
With B1, the binding result is “binds”.
